Measurements: PMC6745792, “A novel biotinylated nanobody-based blocking ELISA for the rapid and sensitive clinical detection of porcine epidemic diarrhea virus” (Journal of Nanobiotechnology, 2019)

B1: Nb1 (anti-PEDV N protein nanobody) (VHH)
VHH: QVQLQESGGGSVQSGGSLRLSCAVSGYTYSGLCMGWFRQAPGREREGVATIDTDGYTSYTDSVKGRFTISRDNAKNTLLLQMNSLQPEDTAMYYCAADPRTAIYCSTSRSAKWYNHWGQGTQVTVSS
B2: Nb1 (VHH)
VHH: B1 VHH
notes: VHH from a Bactrian camel immunised with PEDV N protein, selected by phage display

Legend:
[1] = target: T1, PEDV N protein (recombinant nucleocapsid protein of porcine epidemic diarrhea virus) (Porcine epidemic diarrhea virus, strain …, UniProt Q07499); experiment: SPR; Biacore 3000; purified PEDV N protein (5 µg/ml) amine-coupled to a CM5 chip; Nb1, Nb2, Nb3 flowed at 3 µg/ml each; HBS-EP (10 mM HEPES pH 7.4, 150 mM NaCl, 3 mM EDTA, 0.005% P20), room temperature; 1:1 Langmuir model; details: both partners purified
T1 construct: also called PEDV N antigen; N-His-tagged recombinant protein; source: recombinant, purified ('highly pure')

[2] = target: T2, PEDV N protein (recombinant nucleocapsid protein of porcine epidemic diarrhea virus) (Porcine epidemic diarrhea virus, strain …, UniProt Q07499); experiment: SPR; Biacore 3000; purified PEDV N protein (5 µg/ml) amine-coupled to a CM5 chip; Nb1, Nb2 and Nb3 each flowed over at 3 µg/ml; HBS-EP (10 mM HEPES pH 7.4, 150 mM NaCl, 3 mM EDTA, 0.005% P20); room temperature; 1:1 Langmuir model
T2 construct: also called N-His recombinant protein; N-His-tagged recombinant protein; source: recombinant, purified

Row | Binder | kon [1] [M⁻¹ s⁻¹] | koff [2] [s⁻¹]
1 | B1 | 197000 | 
2 | B2 |  | 0.00206
